The labels stand for the following.
B1: antibody B (VHH)
VHH: QVQLVESGGGLVQPGGSLSLSCVASGFTFSSYAMRWVRQAPGKEPEWVAGINTGSEIVVYANSVRGRFAISRDNARDTLFLQMNSLKPEDTAVYYCATGLVSAEHDGIWGQGTQVTVSS
notes: Anti-PD-L1 alpaca nanobody
B2: antibody Bhu (VHH)
VHH: B1 VHH with L11V, S19R, V23A, E44G, P45L, A69T, A75S, F80Y, K87R, P88A
notes: Humanized anti-PD-L1 nanobody
B3: antibody A (VHH)
VHH: QVQLVESGGGLVQAGGSLRLSCAASGRSFSSSGMGWFRQAPGKDREFVATINSSGGDTYYRDSVEGRFTTSRDNAKNTMSLQMNDLKPEDTAVYYCAAKEGGGPSSIPAIYDYWGQGTQVTVSS
notes: Anti-PD-L1 alpaca nanobody
B4: antibody E (VHH)
VHH: B3 VHH with R61A, Y111F
notes: Anti-PD-L1 alpaca nanobody
B5: antibody Ahu (VHH)
VHH: B3 VHH with L11V, A14P, D44G, A75S, S80Y, D85S, K87R, P88A, Q119L
notes: Humanized anti-PD-L1 nanobody
B6: antibody D1hu (VHH)
VHH: EVQLVESGGGLVQPGGSLRLSCTASGRDFLTYGMGWFRQAPGKELEFVASINWSGSMTYYADSVKGRFTISRDNAKNTVYLQMNSLRAEDTAVYICAARRGAVTYASSNEYEHWGQGTQVTVSS
notes: Humanized anti-PD-L1 nanobody
B7: antibody Chu (VHH)
VHH: B6 VHH with T23A, E44G, L45R, R87K, Q119L
notes: Humanized anti-PD-L1 nanobody
B8: antibody D (VHH)
VHH: B6 VHH with P14A, G16D, L45R, R87K, A88P, E89G
notes: Anti-PD-L1 alpaca nanobody
B9: antibody D2hu (VHH)
VHH: B6 VHH with T23A, E44G, T78S
notes: Humanized anti-PD-L1 nanobody
B10: antibody C (VHH)
VHH: B6 VHH with L11S, P14T, T23V, L45R, R87K, A88P, E89G
notes: Anti-PD-L1 alpaca nanobody
B11: antibody m109-hu (antibody, V domains shown)
VH: EVQLVESGGGLVQPGGSLRLSCATSGFTFSDYYMYWVRQTPEKRLEWVAYISNGGGRTYYPDTVKGRFTISRDNAKNSLYLQMSRLRAEDTAVYYCARQKTNYGNYEEDYYAMGYWGQGTSVTVSS
VL: DIVLTQSPASLAVSLGQRATITCRASKSVSTSGYSYIHWYQQKPGQPPKLLIYLASNLESGVPARFSGSGSGTDFTLTINPVEEEDAATYYCQHSRELPLTFGAGTKLEIK
notes: Humanized m109
B12: antibody m301-hu (antibody, V domains shown)
VH: QVQLQESGPGLVKPSGTLSLTCAVSGFSLTTYGVTWVRQPPGKGLEWIGLIWGDGTTDYHSTFISRLTISKDKSKNQVSLKLSSVTAADTAVYYCASYYFAMHYWGQGTLVTVSS
VL: DIVMTQSPDSLAVSLGERATINCKSSQSLLNSRTQKNYLAWYQQKPGQSPKLLIYWASTRESGVPDRFSGSGSGTDFTLTISSLQAEDVAVYYCKQSYNLWTFGGGTKVEIK
notes: Humanized m301
B13: antibody m107-hu (antibody, V domains shown)
VH: QVQLVQSGAEVKRPGASVKVSCKASGYTFSAYTIHWVKQRPGQGLEWIGYINPSNDFAKYIQKFKDKVTITADKSTSTAYMELNSLRSEDTAVYYCARVDYYGGSYRWYLDVWGQGTTVTVSS
VL: DIVLTQSPATLSLSPGERATLSCRASQSISNNLHWYQQKPGEAPRLLIKYTSQSISGIPARFSGSGSGTDFTLTISSLEPEDFAVYFCQQSNSWPIFTFGQGTKLEIK
notes: Humanized m107
B14: antibody m202-hu (antibody, V domains shown)
VH: QVQLVQSGAEVKKPGASVKVSCKASGYTFTSYWMHWVKQAPGQGLEWIGNINPSNGDTNYNEKFKSKATLTVDKSTSTAYMELRSLRSDDTAVYYCARATYGSYGYFDVWGQGTLVTVSS
VL: DIVLTQSPDSLAVSLGERATINCRASESVTIIGTNLIQWFQQKPGQPPKLLIYHASNLETGVPDRFSGSGSRTDFTLTISSLQAEDVAVYYCLQSRQIPRTFGGGTKVEIK
notes: Humanized m202
B15: b202-L-Bhu (bispecific antibody)
heavy: not shown
light: DIVLTQSPDSLAVSLGERATINCRASESVTIIGTNLIQWFQQKPGQPPKLLIYHASNLETGVPDRFSGSGSRTDFTLTISSLQAEDVAVYYCLQSRQIPRTFGGGTKVEIKRTVAAPSVFIFPPSDEQLKSGTASVVCLLNNFYPREAKVQWKVDNALQSGNSQESVTEQDSKDSTYSLSSTLTLSKADYEKHKVYACEVTHQGLSSPVTKSFNRGECGGGGSGGGGSGGGGSGGGGSQVQLVESGGGVVQPGGSLRLSCAASGFTFSSYAMRWVRQAPGKGLEWVAGINTGSEIVVYANSVRGRFTISRDNSRDTLYLQMNSLRAEDTAVYYCATGLVSAEHDGIWGQGTQVTVSS
B16: b202-H-Bhu-D2hu (bispecific antibody)
heavy: not shown
light: DIVLTQSPDSLAVSLGERATINCRASESVTIIGTNLIQWFQQKPGQPPKLLIYHASNLETGVPDRFSGSGSRTDFTLTISSLQAEDVAVYYCLQSRQIPRTFGGGTKVEIKRTVAAPSVFIFPPSDEQLKSGTASVVCLLNNFYPREAKVQWKVDNALQSGNSQESVTEQDSKDSTYSLSSTLTLSKADYEKHKVYACEVTHQGLSSPVTKSFNRGEC
notes: Tandem architecture and constant regions as noted for b301-H-Bhu-D2hu
B17: b305-H-Bhu-D2hu (bispecific antibody)
heavy: not shown
light: DIQMTQSPSSLSASVGDRVTITCRASQEISGYLSWLQQKPGGAPKRLIYAASTLDSGVPSRFSGSRSGTDYTLTISSLQPEDFATYYCLQYASYPTCTFGGGTKVEIKRTVAAPSVFIFPPSDEQLKSGTASVVCLLNNFYPREAKVQWKVDNALQSGNSQESVTEQDSKDSTYSLSSTLTLSKADYEKHKVYACEVTHQGLSSPVTKSFNRGEC
notes: as for B16
B18: antibody m109 (antibody, V domains shown)
VH: B11 VH with Q3K, R19K, S78T, R87K, A88S, T91R, V93I
VL: B11 VL with T22S, T78N, N80H, E109D, I110L
B19: antibody m202 (antibody, V domains shown)
VH: QVQLQQPGTELVKPGASVKLSCKASGYTFTSYWMHWVKQRPGQGLEWIGNINPSNGDTNYNEKFKSKATLTVDKSSSTAYMQLSSLTSDDSAVYYCARATYGSYGYFDVWGTGTAVTVSS
VL: DIVLTQSPASLAMSLGKRATISCRASESVTIIGTNLIQWFQQKPGQPPKLLIYHASNLETGVPARFSGSGSRTDFTLTIDPVEEDDVAIYYCLQSRQIPRTFGGGTKLEIK

Residue numbers refer to the chain shown, from its start.

The target in the first experiment is PD-L1-Biotin (UniProt Q9NZQ7 19-238, limits assumed, biotin label (site not stated)). As to the kind of experiment: competitive FACS: blocks PD-L1-Biotin binding to 293T-PD-1 cells.
Chain of PD-L1-Biotin (Q9NZQ7 19-238 limits assumed): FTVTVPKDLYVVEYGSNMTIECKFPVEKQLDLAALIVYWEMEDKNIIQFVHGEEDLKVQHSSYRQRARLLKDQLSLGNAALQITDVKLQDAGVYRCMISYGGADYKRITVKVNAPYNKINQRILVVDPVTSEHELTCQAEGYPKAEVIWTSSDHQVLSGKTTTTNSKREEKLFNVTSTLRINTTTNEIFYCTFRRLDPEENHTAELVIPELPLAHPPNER
Usually IC50 stands for the concentration that inhibits the measured activity by half. High values mean weaker potency in that assay, low ones greater potency in that assay. B1 showed an IC50 of 2.08 nM.

B2: the IC50 was 3.4 nM.

As to B3, the IC50 worked out at 1.02 nM.

B4 showed an IC50 of 2.54 nM. This IC50 lies about 2.5-fold higher than the previous one.

The molecule B5 came in with an IC50 of 4 nM.

For the molecule B6, the IC50 came to 2.6 nM. Compared with the last molecule, the IC50 is about 1.5-fold lower.

Molecule B7 displayed an IC50 of 1 nM. This IC50 lies about 2.6-fold lower than the previous one.

Molecule B8 returned an IC50 of 2.1 nM.

As for B9, the IC50 amounted to 12 nM.

B10 yielded an IC50 of 1.68 nM.

The target in another experiment is T1, human PD-L1 (human, UniProt Q9NZQ7 19-290).
T1 construct: whole, on cells; also called hPD-L1; PD-L1 antigen on MDA-MB-231 cells
T1 sequence (Q9NZQ7 19-290): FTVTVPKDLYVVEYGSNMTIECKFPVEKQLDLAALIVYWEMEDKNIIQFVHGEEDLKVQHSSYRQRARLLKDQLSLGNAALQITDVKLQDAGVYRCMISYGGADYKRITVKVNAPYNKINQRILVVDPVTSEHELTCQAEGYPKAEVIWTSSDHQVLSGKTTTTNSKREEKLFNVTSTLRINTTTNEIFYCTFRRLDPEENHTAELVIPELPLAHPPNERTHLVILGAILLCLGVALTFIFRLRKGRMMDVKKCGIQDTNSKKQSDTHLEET
As to the kind of experiment: competitive FACS: blocks human-CD80-mFc binding to 293T-PD-L1 cells.
B1 registered an IC50 of 3.35 nM.

In turn, B2 yielded an IC50 of about 1.7 nM.

For B3, the IC50 turned out to be 3.95 nM.

As for B4, the IC50 was determined as 2.98 nM.

B5 registered an IC50 of about 1.8 nM.

As for B6, the IC50 is about 1.5 nM.

Consider B7, for which the IC50 is about 3.2 nM.

In turn, B8 returned an IC50 of 4.76 nM. This lies in the single-digit nanomolar range.

The molecule B10 gave an IC50 of 4.15 nM.

In the next experiment the target is T2, human transforming growth factor β1 (human, UniProt P01137 279-390).
T2 construct: Coated on the ELISA plate at 100 ng/well; also called hTGF-β1; TGF-β
T2 sequence (P01137 279-390 limits assumed): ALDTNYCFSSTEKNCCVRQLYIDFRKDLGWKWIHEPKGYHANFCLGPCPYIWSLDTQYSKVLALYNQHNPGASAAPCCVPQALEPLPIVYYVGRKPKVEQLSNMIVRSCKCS
As to the kind of experiment: ELISA, plate-coated hTGF-β1. (In general: An ELISA detects its analyte on a solid surface through an enzyme-linked reagent.)
What is called EC50 is the concentration needed to bring the measured effect to its halfway point. The molecule B11 had a concentration giving a half-maximal response (EC50) of 0.73 nM.

Molecule B12 showed an EC50 of under 2 nM.

In turn, B13 showed an EC50 of 7.5 nM.

The molecule B14 registered an EC50 of under 2 nM.

A further experiment deals with T1, human PD-L1. As to the kind of experiment: FACS on PD-L1-expressing cells, similar method.
On to B2, for which the EC50 was determined as 0.18 nM.

Molecule B5 gave an EC50 of 0.051 nM.

Molecule B6 gave an EC50 of 0.18 nM.

As for B9, it took 0.29 nM to reach a half-maximal effect (EC50).

The target of the next experiment is T1, human PD-L1. As to the kind of experiment: FACS on MDA-MB-231 cells (endogenous PD-L1).
The molecule B1 displayed an EC50 of 0.031 nM. This counts as picomolar.

B3 had an EC50 of 0.089 nM. Against the preceding molecule, the EC50 is about 2.9-fold higher.

The molecule B4 registered an EC50 of 0.053 nM.

Turning to B8, the EC50 came to 0.039 nM.

On to B10, for which the response was half-maximal at 0.042 nM (EC50).

The target of a further experiment is T3, GARP-TGF-β complex (293-GARP/TGFβ stably transfected cells) (UniProt Q14392 20-662; P01137 30-390).
T3 construct: whole, on cells; Complex of GARP and (latent) TGF-β on the cell surface; also called 293-GARP/TGFβ cell; 293F-GAPR/TGFβ/αvβ6 cells
T3 sequence (Q14392 20-662, chain 1 of 2): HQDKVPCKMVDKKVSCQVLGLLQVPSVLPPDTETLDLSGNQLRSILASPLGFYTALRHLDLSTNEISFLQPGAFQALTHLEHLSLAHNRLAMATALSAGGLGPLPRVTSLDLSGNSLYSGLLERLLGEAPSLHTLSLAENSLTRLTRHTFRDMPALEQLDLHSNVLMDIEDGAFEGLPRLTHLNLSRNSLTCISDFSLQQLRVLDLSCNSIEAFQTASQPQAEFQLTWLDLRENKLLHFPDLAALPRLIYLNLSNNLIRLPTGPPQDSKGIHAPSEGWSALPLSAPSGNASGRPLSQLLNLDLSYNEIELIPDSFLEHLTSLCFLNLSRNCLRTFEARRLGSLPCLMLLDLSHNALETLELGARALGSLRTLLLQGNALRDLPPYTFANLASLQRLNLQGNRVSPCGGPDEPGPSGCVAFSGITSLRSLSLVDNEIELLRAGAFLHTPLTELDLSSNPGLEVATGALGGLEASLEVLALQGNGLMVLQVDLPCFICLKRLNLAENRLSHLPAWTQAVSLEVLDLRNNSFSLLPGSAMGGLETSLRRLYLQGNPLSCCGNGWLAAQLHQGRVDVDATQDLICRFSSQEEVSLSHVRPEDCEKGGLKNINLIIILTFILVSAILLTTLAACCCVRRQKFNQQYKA
T3 sequence (P01137 30-390, chain 2 of 2): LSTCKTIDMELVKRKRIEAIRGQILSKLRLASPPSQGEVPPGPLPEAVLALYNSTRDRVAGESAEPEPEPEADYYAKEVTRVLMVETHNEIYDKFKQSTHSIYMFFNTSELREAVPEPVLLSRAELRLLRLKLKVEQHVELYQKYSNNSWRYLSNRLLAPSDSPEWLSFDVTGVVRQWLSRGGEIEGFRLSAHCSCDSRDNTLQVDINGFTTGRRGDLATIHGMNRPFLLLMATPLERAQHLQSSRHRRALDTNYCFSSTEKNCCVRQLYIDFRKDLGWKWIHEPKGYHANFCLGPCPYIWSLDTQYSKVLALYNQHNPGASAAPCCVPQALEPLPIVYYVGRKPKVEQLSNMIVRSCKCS
As to the kind of experiment: FACS on 293-GARP/TGFβ cells.
As for B15, the EC50 amounted to 1.6 nM. This counts as single-digit nanomolar.

Regarding B16, the EC50 was 1.5 nM.

For B17, it took 4.4 nM to reach a half-maximal effect (EC50).

For another experiment, the target named is T1, human PD-L1. As to the kind of experiment: FACS on MC38-hPD-L1 cells.
Take B12: the binding result was “no binding (tested: initial concentration 200 nM)”.

With B14, the binding result is “no binding (tested: initial concentration 200 nM)”.

A further experiment concerns the target T3, GARP-TGF-β complex (293-GARP/TGFβ …). As to the kind of experiment: FACS on 293-GARP/TGFβ cells. The source holds these as a separate data set.
B18: the EC50 is over 5 nM.

Turning to B19, the response was half-maximal at 2.7 nM (EC50).

The target is the same in another experiment. As to the kind of experiment: FACS on 293-GARP/TGFβ cells. This is another data set of the same source.
The molecule B11 showed an EC50 of over 5 nM.

With B12, a half-maximal response (EC50) required 4 nM.

The molecule B13 gave an EC50 of 7.5 nM.

For B14, the 50% effective concentration (EC50) was 2.5 nM.

The target in another experiment is T2, human transforming growth factor β1. As to the kind of experiment: ELISA, plate-coated hTGF-β1. This is another data set of the same source.
As for B18, the EC50 was under 1 nM.

B19: the EC50 is under 1 nM.

These data come from US20240383974A1 (BETTA PHARMACEUTICALS, published 2024).
